Source: article PMC9859762

Biological target: thin filaments of membrane-permeabilized (skinned) porcine ventricular myofibrils (pig (endogenous in porcine ventricular myofibrils)) (UniProt P42639)
Test: co-sedimentation; 23 ± 3 uM IANBD-labeled Tn incubated 4 h on ice (or overnight) with skinned porcine myofibrils (~20 mg/ml) in hypotonic rigor buffer with 6 mM ATP and 1 mg/ml BSA; myofibrils pelleted at 1,000 x g and washed; labeled cTnC relative to total cTnC on 18% SDS-PAGE (fluorescence against Coomassie)

Chain of UniProt P42639 (P42639 whole entry, looked up): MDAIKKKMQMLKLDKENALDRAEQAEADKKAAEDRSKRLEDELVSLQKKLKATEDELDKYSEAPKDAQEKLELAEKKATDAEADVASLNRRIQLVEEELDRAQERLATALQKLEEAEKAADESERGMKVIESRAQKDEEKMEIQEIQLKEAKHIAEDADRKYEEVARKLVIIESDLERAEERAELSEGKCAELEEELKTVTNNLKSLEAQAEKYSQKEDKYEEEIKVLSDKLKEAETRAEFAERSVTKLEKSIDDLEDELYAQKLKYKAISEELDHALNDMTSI

extent of exchange (labeled cTnC relative to total cTnC in the myofibrils): 41%
Substance: human recombinant troponin complex containing IANBD-cTnC^T53C, wild-type cTnI and wild-type cTnT (from UniProt P63316 1-161; P19429 1-210)
